According to US20210261685A1 (Alector, published 2021):
Numbering of substitutions follows the chain as printed.

T1: Recombinant human MerTK human Fc Chimera protein (R&D systems, Cat #391-MR-100) (human, UniProt Q12866 26-499, limits assumed)
T1 construct: Bought; also called recombinant human MerTK protein; MerTK-Fc
T1 sequence: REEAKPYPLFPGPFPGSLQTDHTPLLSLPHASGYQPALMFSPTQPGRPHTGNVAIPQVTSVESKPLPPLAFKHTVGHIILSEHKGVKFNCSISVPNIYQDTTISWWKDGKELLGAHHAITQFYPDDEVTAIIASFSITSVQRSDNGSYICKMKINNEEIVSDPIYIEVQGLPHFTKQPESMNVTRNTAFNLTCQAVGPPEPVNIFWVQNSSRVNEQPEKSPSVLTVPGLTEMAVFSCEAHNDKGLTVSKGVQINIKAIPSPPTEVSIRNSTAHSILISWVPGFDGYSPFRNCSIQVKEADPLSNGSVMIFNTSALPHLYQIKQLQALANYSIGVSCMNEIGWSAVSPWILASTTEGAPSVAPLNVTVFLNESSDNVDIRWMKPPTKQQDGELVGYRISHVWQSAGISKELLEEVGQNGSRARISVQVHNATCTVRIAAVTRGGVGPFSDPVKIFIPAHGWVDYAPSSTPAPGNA

T2: murine MerTK overexpressed on CHO cells (CHO-muMerTK OE cells) (mouse, UniProt Q60805 19-994)
T2 construct: whole, on cells
T2 sequence (looked up): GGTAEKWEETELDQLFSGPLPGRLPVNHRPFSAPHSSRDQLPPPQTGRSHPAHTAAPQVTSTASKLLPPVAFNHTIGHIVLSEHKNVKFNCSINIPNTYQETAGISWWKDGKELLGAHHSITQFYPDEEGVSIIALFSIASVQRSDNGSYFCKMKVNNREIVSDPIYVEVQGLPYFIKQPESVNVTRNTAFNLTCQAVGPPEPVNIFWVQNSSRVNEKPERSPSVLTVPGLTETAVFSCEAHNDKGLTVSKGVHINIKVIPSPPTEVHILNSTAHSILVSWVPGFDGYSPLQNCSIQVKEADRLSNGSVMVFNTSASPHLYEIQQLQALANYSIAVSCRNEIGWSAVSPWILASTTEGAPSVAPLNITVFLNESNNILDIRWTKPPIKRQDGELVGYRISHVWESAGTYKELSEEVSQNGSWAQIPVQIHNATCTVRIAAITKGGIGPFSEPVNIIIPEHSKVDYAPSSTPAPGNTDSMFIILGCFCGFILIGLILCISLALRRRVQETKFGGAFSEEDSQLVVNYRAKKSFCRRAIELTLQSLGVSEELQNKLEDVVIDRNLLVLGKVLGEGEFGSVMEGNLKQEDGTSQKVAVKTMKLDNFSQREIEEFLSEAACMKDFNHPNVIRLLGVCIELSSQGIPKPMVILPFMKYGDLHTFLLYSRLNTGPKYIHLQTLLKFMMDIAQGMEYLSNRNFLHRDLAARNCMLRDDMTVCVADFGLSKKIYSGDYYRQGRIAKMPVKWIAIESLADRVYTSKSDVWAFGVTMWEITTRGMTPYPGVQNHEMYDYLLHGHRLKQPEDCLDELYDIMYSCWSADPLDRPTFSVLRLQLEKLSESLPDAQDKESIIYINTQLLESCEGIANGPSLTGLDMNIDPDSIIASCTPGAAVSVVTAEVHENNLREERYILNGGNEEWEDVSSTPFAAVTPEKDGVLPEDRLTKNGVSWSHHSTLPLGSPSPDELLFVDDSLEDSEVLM

B1: MTK-03 (antibody, human IgG1, V domains shown)
VH: DVQLQESGPGLVKPSQSLSLTCSVTGYSITSGYYWNWIRQFPGNTLEWMGYMSFDGDNKFNPSLKNRISITRDTSKNQFFLRLNSVTTEDTATYYCARGGYNYGSTEANWGQGTLVTVSA
VL: QIVLTQSPAIMSAFPGEKVTITCSASSSVNYMHWFQQKPGTSPKLWIYSTSNLASGVPARFSGSGSGTSYSLTISRMEAEDAATYYCQQRSSYPFTFGSGTKLEIK
B2: MTK-07 (antibody, human IgG1, V domains shown)
VH: B1 VH with A120T
VL: B1 VL with N30T, Y48F
B3: MTK-18 (antibody, human IgG1, V domains shown)
VH: QIQLVQSGPELKKPGETVKISCKASGYTFTHYGMTWVKQAPGKGLKWMGWINTYTGEPTYADDFKGRFAFSLETSASTAYLQINNLKNEDTATYFCARGGGQLGLRPLDYWGQGTTLTVSS
VL: DIQMTQTTSSLSASLGDRVTFSCRASQAISNYLNWYQQKPDGTVKLLIYYTSRLHSGVPSRFSGSGSGTDYSLTISNLEQEDIATYFCQQGNTLPWTFGGGTKLEIK
B4: MTK-17 (antibody, human IgG1, V domains shown)
VH: QIQLVQSGPELKKPGETVKISCKASGYTFTNFGMNWVKQAPGKGLKWMGWINTYTGEPTYADDFKGRFAFSLETSASTAYLQINNLKNEDTATYFCSRGAVLRAGAMDCWGQGTSVTVSS
VL: DIQMTQSSSYLSVSLGGRVTITCKASDHINNWLAWYQQKPGNAPRLLISGATSLETGVPSRFSGSGSGKDYTLSITSLQTEDVATYYCQQYWSTPRTFGGGTKLEIK
B5: MTK-33 (antibody, human IgG1, V domains shown)
VH: QVQLQQPGPELVRPGTSVKLSCKASGYTFTSYWMHWIKQRPGQGLEWIGVIDPSDNYINYNQKFKGKATLTVDTSSSTAYLQLSSLTSEDSAVYYCAREAGTRGYFDYWGQGTTLTVSS
VL: SIVMTQTPKFLLVSAGDRVIITCKASQSVSNTVAWYQQKPGQSPKLLIYYASNRYTGVPDRFTGSGYGTDFTFTISTVQAEDLAVYFCQQDYRSPFTFGSGTQLEMK
B6: MTK-24 (antibody, human IgG1, V domains shown)
VH: QVQLQQPGAELVKPGASVKLSCKASGYTFTSYWMHWVKQRPGQGLEWIGMIHPNINTNYNEKFKSKATLTVDISSSTAYMQLSSLTSEDSAVYYCAKRSPYSNYDWYFDVWGTGTTVTVSS
VL: DIQMTQSPASLSVSVGETVTITCRASENIYSNLAWYQQKQGKSPQLLVYAATNLADGVPSRFSGSGSGTQYSLKINSLQSEDFGSYYCQHFWGTPLTFGAGTKLELK
B7: MTK-30 (antibody, human IgG1, V domains shown)
VH: QVQLQQPGTELVRPGASVKLSCKASGYTFTSYWMHWVKQRPGQGLEWIGNLNPNNGGTYYNEKFKSKATLTVDKSSSTAYMQLSSLTSEDSAVYYCARQILLYFDYWGQGTTLTVSS
VL: DVLMTQTPLSLPVSLGDQASISCRSSQSIVHSNGDTYLEWYLQKPGQSPKLLIYKVSNRFSGVPDRFSGSGSGTDFTLKISRVEAEDLGVYYCFQGSHVPWTFGGGTKLEIK
B8: MTK-31 (antibody, human IgG1, V domains shown)
VH: QIQLVQSGPELKKSGETVKISCKASGYTFTSYGMSWVKQAPGKGLKWMGWINTYSGVPTYADDFKGRFAFSLETSASTAYLQINNLKNEDTATYFCASLSYDGSLYHAMDYWGQGTSVTVSS
VL: B7 VL with L3S, C23S, S28T, D35N
B9: MTK-29 (antibody, human IgG1, V domains shown)
VH: QIQLVQSGPELKKPGETVKISCKSSGFTFTTYGMSWVKQAPGKGLKWMGWINTYSGVPTYTDDFKGRFAFSLETSASTASLQINNLKNEDTATYFCARYTNYGYFDYWGQGTTLTVSS
VL: QIVLSQSPAILSASPGEKVTMTCRATSSVGYMHWYQQKPGSSPKPWIYATSNLASGVPARFSGSGSGTSYSLTISRVEAEHAATYYCQQWGSNPFTFGSGTKLEIK

What follows are binders tested against T1, Recombinant human MerTK human Fc … (assay: competition ELISA: His-tagged ProS (20 ug/ml) binding to captured human MerTK-Fc, anti-His-HRP detection; blocked ligand ProS).
Method: Rabbit anti-human IgG polyclonal antibody (Jackson ImmunoResearch, Cat #309-005-008) was captured to a high-protein binding plate at 2 μg/ml 4° C. overnight. After washing with 0.05% Tween20 in PBS three times, 5% BSA in PBS was added for 1 hour. Recombinant human MerTK human Fc Chimera protein (R&D systems, Cat #391-MR-100) was added at 2 μg/ml for 1 hour and the plates were then washed. Anti-MerTK antibodies were titrated to final concentration range of between 66.6 nM to 4 pM and then 40 μl of serially diluted antibody and 40 μl of His tag-conjugated recombinant Gas6 protein (R&D systems, Cat #885-GSB-050) at 3 μg/ml or His tag-conjugated recombinant ProS protein (R&D systems, Cat #9489-PS-100) at 20 μg/ml. After a further incubation for 1 hour, plates were washed and incubated for 1 hour with HRP-conjugated anti-6×His tag antibody (Abcam, Cat #ab1187). Plates were then washed and an HRP substrate (TMB) was used to develop the plates. After sufficient color change was observed, the reaction was stopped by adding 50 μl 2N H₂SO₄ and the OD was measured using a spectrophotometer (BioTek).

B1 and B2 are within 1.5-fold of each other in “IC50 (read off the curve)” value: roughly 4 nM for the first, roughly 3 nM for the second.

B3 and B4 cannot be ordered by “IC50 (read off the curve)” value: roughly 5 nM for the first, 5 to 8 nM for the second.

What follows are binders tested against T2, murine MerTK overexpressed on CHO cells … (assay: flow cytometry on CHO-muMerTK OE cells, Prism fit).
Method: To determine whether recombinant anti-human MerTK antibodies of the present disclosure bind to human MerTK endogenously expressed on SK-MEL-5 cells and to CHO cells overexpressing mouse MerTK (CHO-muMerTK OE cells), the following experiments were performed. SK-MEL-5 cells and CHO-muMerTK OE cells were plated at 40,000 cells/well. Anti-MerTK antibodies were titrated to a final concentration range of between 66.6 nM to 4 pM and then added to the cells. After 30 min on ice, cells were washed and then stained with APC-conjugated mouse anti-human Kappa antibody (Southern Biotech Cat #9230-11, Birmingham, Ala.) and a viability die (Life Technologies) in the presence of Fc block solution on ice for 30 minutes, and then washed twice with cold FACS buffer (2% FBS in PBS). Cells were fixed with 4% paraformaldehyde in PBS. Stained cells were acquired on a BD FACS Canto II cytometer and the mean fluorescence intensity (MFI) was calculated with FlowJo software and K value was calculated with Prism software. […] A lower Kd value reflects higher binding of antibody to cells.

Compared with B5, B6 is 2.4-fold lower in Kd: 0.53 nM for the first, 0.22 nM for the second.

Compared with B7, B8 is 12-fold higher in Kd: 0.24 nM for the first, 2.91 nM for the second. The first binds more tightly here.

For B9, the Kd was 5.22 nM.
